Data set [1] deals with the molecule itself. The data set can be described thus: crystal structure; oxidized form of CaTHL, 1.77 Å, space group P2(1)2(1)2, two molecules per asymmetric unit, tetramer generated by crystallographic symmetry; crystals from 100 mM phosphate-citrate pH 4.2, 10% PEG 3,350, 200 mM sodium chloride at 293 K.
Data set [2] deals with the molecule itself. Description: crystal structure; CaTHL C378S (reduced form, 10 mM DTT) crystals soaked with 30 mM CoA for 30 min, 1.90 Å, space group P2(1)2(1)2.

As a reminder, the stoichiometry N is the number of molecules, sites or subunits per partner or assembly.

Residue numbers refer to the chain shown, from its start. Names and notes keep the numbering of the source.

B1: Clostridium acetobutylicum thiolase (CaTHL), wild type, oxidized form (enzyme, UniProt P45359 1-392, looked up)
chain: MKEVVIASAVRTAIGSYGKSLKDVPAVDLGATAIKEAVKKAGIKPEDVNEVILGNVLQAGLGQNPARQASFKAGLPVEIPAMTINKVCGSGLRTVSLAAQIIKAGDADVIIAGGMENMSRAPYLANNARWGYRMGNAKFVDEMITDGLWDAFNDYHMGITAENIAERWNISREEQDEFALASQKKAEEAIKSGQFKDEIVPVVIKGRKGETVVDTDEHPRFGSTIEGLAKLKPAFKKDGTVTAGNASGLNDCAAVLVIMSAEKAKELGVKPLAKIVSYGSAGVDPAIMGYGPFYATKAAIEKAGWTVDELDLIESNEAFAAQSLAVAKDLKFDMNKVNVNGGAIALGHPIGASGARILVTLVHAMQKRDAKKGLATLCIGGGQGTAILLEKC
notes: Thiolase (acetyl-CoA acetyltransferase) of Clostridium acetobutylicum, amino acid residues 1-392, amplified from the chromosome and cloned into pET30a; In the crystal (oxidized form) a disulfide bond joins Cys88 and Cys378, and residues 280-292 are disordered; Two molecules per asymmetric unit; the tetramer is generated by crystallographic symmetry; also called C. acetobutylicum thiolase; type II …
As for B1, the “stoichiometry N” value in data set [1] came to 4.

B2: Clostridium acetobutylicum thiolase C378S mutant (reduced form of CaTHL) (enzyme, UniProt P45359 1-392, looked up)
chain: B1 chain with C378S
notes: Thiolase (acetyl-CoA acetyltransferase) of Clostridium acetobutylicum, amino acid residues 1-392, with the C378S mutation made by site-directed mutagenesis; Crystallized with 10 mM DTT; For the CoA complex the crystals were soaked with 30 mM CoA for 30 min; also called CaTHL C378S mutant
Take B2: the binding result in data set [2] is listed as “binds”.

The values are drawn from publication PMC4595758, “Redox-switch regulatory mechanism of thiolase from Clostridium acetobutylicum” (Nature Communications, 2015).
